Reference: patent US20150093799A1
One block for each binder: values may come before it.

Tests used:
[1] = target: anti-Jo-1 antibodies (commercially available, from human patient samples) (human); experiment: competitive ELISA: soluble HisRS pre-incubated with anti-Jo-1 human serum at 1:2,000; competitor is plate-bound full-length wild-type HisRS; A450
[2] = target: anti-Jo-1 antibodies (commercially available, from human patient samples) (human); experiment: competitive ELISA: soluble competitor pre-incubated with anti-Jo-1 serum; competitor is plate-bound full-length wild-type HisRS; A450
[3] = target: anti-Jo-1 antibodies (commercially available, from human patient samples) (human); experiment: immunodepletion: HRS polypeptide on NHS-agarose (Affi-gel 10), anti-Jo-1 antibodies (RDL) at 1:1,000, titre by ELISA before and after
[4] = target: anti-Jo-1 antibodies (commercially available, from human patient samples) (human); experiment: competitive ELISA: soluble competitor pre-incubated with anti-Jo-1 serum; competitor is plate-bound full-length human wild-type HisRS; A450
[5] = target: anti-Jo-1 antibodies (commercially available, from human patient samples) (human); experiment: competitive ELISA, full-length histidyl-tRNA synthetase on the plate

IC50 (read off the curve) [1]: 0.8 nM
IC50 (read off the curve) [2]: 30 pM
percent of detectable Jo-1 antibodies removed [3]: 93%
IC50 (read off the curve) [4]: 0.3 nM
B1: Full-length histidyl-tRNA synthetase (HRS), His-tagged (enzyme)
chain: MAERAALEELVKLQGERVRGLKQQKASAELIEEEVAKLLKLKAQLGPDESKQKFVLKTPKGTRDYSPRQMAVREKVFDVIIRCFKRHGAEVIDTPVFELKETLMGKYGEDSKLIYDLKDQGGELLSLRYDLTVPFARYLAMNKLTNIKRYHIAKVYRRDNPAMTRGRYREFYQCDFDIAGNFDPMIPDAECLKIMCEILSSLQIGDFLVKVNDRRILDGMFAICGVSDSKFRTICSSVDKLDKVSWEEVKNEMVGEKGLAPEVADRIGDYVQQHGGVSLVEQLLQDPKLSQNKQALEGLGDLKLLFEYLTLFGIDDKISFDLSLARGLDYYTGVIYEAVLLQTPAQAGEEPLGVGSVAAGGRYDGLVGMFDPKGRKVPCVGLSIGVERIFSIVEQRLEALEEKIRTTETQVLVASAQKKLLEERLKLVSELWDAGIKAELLYKKNPKLLNQLQYCEEAGIPLVAIIGEQELKDGVIKLRSVTSREEVDVRREDLVEEIKRRTGQPLCICAAALEHHHHHH

percent of detectable Jo-1 antibodies removed [3]: < 99%
IC50 (read off the curve) [4]: 0.3 nM
B2: HRS(1-506) (enzyme)
chain: MAERAALEELVKLQGERVRGLKQQKASAELIEEEVAKLLKLKAQLGPDESKQKFVLKTPKGTRDYSPRQMAVREKVFDVIIRCFKRHGAEVIDTPVFELKETLMGKYGEDSKLIYDLKDQGGELLSLRYDLTVPFARYLAMNKLTNIKRYHIAKVYRRDNPAMTRGRYREFYQCDFDIAGNFDPMIPDAECLKIMCEILSSLQIGDFLVKVNDRRILDGMFAICGVSDSKFRTICSSVDKLDKVSWEEVKNEMVGEKGLAPEVADRIGDYVQQHGGVSLVEQLLQDPKLSQNKQALEGLGDLKLLFEYLTLFGIDDKISFDLSLARGLDYYTGVIYEAVLLQTPAQAGEEPLGVGSVAAGGRYDGLVGMFDPKGRKVPCVGLSIGVERIFSIVEQRLEALEEKIRTTETQVLVASAQKKLLEERLKLVSELWDAGIKAELLYKKNPKLLNQLQYCEEAGIPLVAIIGEQELKDGVIKLRSVTSREEVDVRREDLVEEIKRRTGQPL

percent of detectable Jo-1 antibodies removed [3]: 20%
concentration above which competition is seen [5]: > 100 nM
B3: Resokine (HRS(1-60)), His-tagged (peptide)
chain: MAERAALEELVKLQGERVRGLKQQKASAELIEEEVAKLLKLKAQLGPDESKQKFVLKTPKHHHHHH
